Assay results reported in the supplement of paper PMC9170038.

test system: K4 kissing-loop RNA reporter; assay: apparent KD of K4 kissing-loop reporter; higher = weaker reporter binding; conditions: Eterna round: R107; input ligand: arginine 13.2 mM
Description: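 RNA-MaP round R107: designed RNA switches with theophylline, tryptophan, arginine or FMN aptamers are transcribed on-chip within common flanks. They are titrated with a labelled K4 kissing-loop RNA reporter in RNA-MaP buffer (100 mM Tris pH 7.5, 80 mM KCl, 4 mM MgCl2), without ligand or with the indicated ligand. Median apparent KD per design.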
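Note: bound reporter read as fluorescence of individual clusters on recovered sequencing chips by microscopy, with normalized cluster intensities fitted with a binding model.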

Sequence	apparent KD of K4 kissing-loop reporter [nM]
ACCACCUGUCUGGAUACCAGUCUUCGAGUGAUGUUGGAAGUUAGCCGGUUCUAUUACCUAGACCCUUGGCAGCCAGGAAUUAUAG [theeternabot_exclusion_KL_Theo_B_17]	861
CGUGAAUGUCGUCAGUCAUCGGUCCAUGCACGAGGACCGGUACGGCCGCCACUCGAGCGUGGCAGUGAUGUUGCCAGCGCACUAA [KL-XTryp-A13]	115
CCUGCAGCUGUUACCGAGGGAUGCUACGGACGAGGACCGGUACGGCCGCCACUCGCCAGUGAUGUUGGUGAGGGAGGACGUUCCU [Georte]	106
UUAUCAUCAGCGGCCGCCACUGCAAAUUGGAGUGAUGUUCCAAGCGUGGAUAAUGAAAUCACUAGUAGGACCGGGUUGAUGAAUU [AK 1 Ex Trypt B]	231
CGCAGUGAUGUUGCGAGUUUGAUCAGGGAAGGAGCGGCUCAGAAGCCAGGUAGGUCGCCCACGCAGUGAUGUUGUGUAUUCGGGU [Exclusion Arginine A GF 1]	88.1
UGCCGCAAGGCGAGCGCUCCCACUCCGGAAGGAGCGCCCGGAAGGGCAGGUAGGUCGCCGGAGUGAUGUUCCGGUGGAGGGCUCG [#2 Exclusion - Arginine A Attempt #26 (Inspired by Omei)]	165
CCUAUCUCAUACGAUACCAGUCAAUGAUCUUUGAUCAAUGCCAUCACCGAGUGAUGUUCGGACCCUUGGCAGCGUAUGAGAUAGG [whbob_Ex_Theo_B_sa103]	225
AUUUAAUUAACUGAUACCAGACUUUUUGUUUUGAUAAUUACUAGUGAUGUUAGUGUUUCUGUCCCUUGGCAGCAGUAUCUACUUA [JR_ExcTheophyB_Sub017]	177
UUGAGCCGGACUUAAGUCCGGCUCUGCGAGCGAGGACCGGUACGGCCGCCACUCGGUGCAGUGAUGUUGCAUGGCCGCAAGGCCG [#2 Exclusion - Tryptophan A Attempt #11 (HarryS)]	209
GGAGGGAUCUCGGCCGCCACUCAUAAGAAAUGGGCCUCAGAAAUAUAGUGAUGUUAUGUAAAGAAGAGGACCGGGAGAAAGAAGG [ExTryptoB.Da]	202
UGGAGUUGACGAAAAGUCAACUCCUGAGAAGGAGCGCACGAAAGUGCAGGUAGGUCGCUCUACCAGUGAUGUUGGUACUUAAUAA [#OpenEnded 6]	170
ACGGUUUCCACGGCCGCCACUUGCGCAUUAGAUCUUACCCUAGGAGUGAUGUUCCAUACAAGUACAAGGACCGGGUGGGACAUAA [theeternabot_sameState_KL_Trp_B_28]	369
CCGUGGAGUGAUGUUCCACGUUCUACGGAUACCAGUUGUGCCAGCGGCCCUUGGCAGCCGCACCUUGCAGUGAUGUUGUGAGGCU [Same State Theophylline A Gf 6]	210
UGAUUUAACUGAAGGAGCGGCAAUUGAUAAGUAAAUAUAGUGAUGUUAUAUAAGAGAGAGAGCCAGGUAGGUCGCAGAGGGAGGA [ExArgB.I]	138
AAUUCAGUGAUGUUGGAAGGCAGGCGGGAUACCAGCGGAGAAUAACGCCCUUGGCAGCCCAUAUAUCCCAAAUAGAUAAUAGUUC [Same State - Theophylline A (Freestyle 3)]	317
GCAGUGAUGUUGCACGAGUAGGCUGGAGUACGAGGACCGGUACGGCCGCCACUCGUACGAUAGUCGCUAAUUUAUGGAAUGGUGA [#08 K4 Tryptophan A Same State]	381

Sequence	apparent KD of K4 kissing-loop reporter [nM]
CUGCAACAUAACUUCUUCGUCCUAGAAGACUAGGAUAUCAGGAAACUGAGAAGGAGUCUCUGCAGUGAUGUUGCAGCUAGGACGA [[K]'-[F2]'-[F1]'-[F1]-[F2]-[K1]-[K2]-[F]''_Design3]	159
UCAUGAAAGACGGCCGCCACUGAUGCUGGAGUGAUGUUUCGGACAUAGUAGAGUGAUGUUCUGCGCAGGACCGGGUCGUCAUGAA [KL-SSTryp-B10 #double Kiss]	64.6
AGCAGUCACUCGAAAACCAUCGAAGAUGGACGAGGACCGGUACGGCCGCCACUCGGAGUGAUGUUCCGAAGACUGCAAAAUAAAA [#SwitchBubble 16]	402
AUGGGUUGUUGAAGGAGCGCCGCCAGUGAUGUUGGGAGUUAGAUACCAGUGAUGUUGGGCCGGCAGGUAGGUCGCGGCGAUUUAU [Exclusion Arginine B GF 19]	170
GGCUUGCUAGUGAUGUUAGCAUUUUCUGAAGGAGCGCGUGAAAACGCAGGUAGGUCGCAGAACCUUGCCAACUAUUUUAGUUGCC [Ex Arginine A K4 27]	113
GUUACGCAUGGAAGGAGCGCAGGCUCAACAAAUAGCUCAGUGAUGUUGAGCAUAUUAAUUCUGCAGGUAGGUCGCCAUGUGUAAC [Ex Arginine B K4 25]	491
UUUUUUUACUGAAGGAGCGGCAAUUGAUACGUAGAUAUAGUGAUGUUAUAUAAGAUAGAGAGCCAGGUAGGUCGCAGAUUUUUUU [ExArgB.W]	171
GGGAGUAGUGCGGCCGCCACUGUGAAAGAAGAAGAAUAUAGUGAUGUUAUAUAGGAAAGGAAGAAUAGGACCGGGCAUUAGAUUU [SSTRyptB.K]	226
AAUUUAGUGACGGCCGCCACUAGGGUGAUUUAUUUGUUUGAGUGAUGUUUUGAUGUUUGAUUUUGUAGGACCGGGUUAGGUGAUG [dddcmullin]	304
GGCACUUUUGCUUGGAACCGUCAAGCUCGAUAGGAUAUGCCGAAAGGCAGAAGGAUUGACCUACAGAGUGAUGUUCUGCGUGCCU	378
AGUACAAUGGCGGCCGCCACUCAACGCAGAUCAAAGAUCUGCGAUCACUCAGUGAUGUUGAGUGAGAGGACCGGGCCUUUGUACA [Omei KL Tryp B SS B v6]	272
GUUAAAUAAAUGGGCAUAGUGAUGUUGUGUCGAGGACCGGUACGGCCGCCACUCGAGCUAGCAUGCCGGUCAUUAUGGGUAGUUU [theeternabot_exclusion_KL_Trp_A_46]	118
UUGAGCCUGACGGAAGUCAGGCUCUGCGAGCGAGGACCGGUACGGCCGCCACUCGGUGCAGUGAUGUUGCAUGGCCGCAAGGCCG [#2 Exclusion - Tryptophan A Attempt #16 (HarryS)]	290
ACGUAGUUCUAGGAUACCAGCCAAGGUGCCAGGACAAAAGUCCUGGCAGCCAGUGAUGUUGGCCCUUGGCAGCCUAGAACUACGA [Omei KL Theo B Exc B v7]	145
UAUAGAGUGACGGCCGCCACUAUUGUGAUUUAAUUGUUUGAGUGAUGUUUUGAUGUUUGAUUUUGUAGGACCGGGUUAUAUGUUA [zdzzmullin]	718
CUCCGACUAUCGGCCGCCACUAUCGGAAAGUCCACGGACAUUCAAUGCAGUUAGUGAUGUUAACGUAGGACCGGGAUGAUUUGUA [theeternabot_sameState_KL_Trp_B_9]	350

same assay, conditions: Eterna round: R107; input ligand: none

Sequence	apparent KD of K4 kissing-loop reporter [nM]
UGAUACCAGACGGCCGCCACUACACCAGUCAAAGACUGGAUGUGAUGUCUGACCAGUGAUGUUGGUAGGACCGGGUCUGGUAUCU [TrypBX 6 #Palindromic #SwitchBubble #StaticStem]	428
GGUAUCUAUACAGAUACCAGUCGUACGGCUGCAUUACAGGUUAGUGAUGUUAACCUGUACGACCCUUGGCAGCUGUAUAGUAGUA [#14 K4 Theophylline B Exclusion]	115
CGUUUCUCUGUCGAUACCAGCUUCAGUUGGCGGCCAGUGAUGUUGGUAUCGCCGAUGCCAAGCCCUUGGCAGCGACAUGAGACCC [Gezausin]	193
CUUGGAAGGACGGCCGCCACUGGGCAGUGAUGUUGCCCGAGUUGGUAACGCAGUGAUGUUGCGUCCAGGACCGGGUCCUAGGAAU [Exclusion Tryptophan B GF 25]	112
UAGAUAAUGUAAGAUUAUGAUAAUUGGGAAGGAGCGCGGAAAUUCGCAGGUAGGUCGCCCUAUAAAGUAGUACGAGUGAUGUUCG [6.)]	281
AAGUCUCGUUAAUUCGUGGUUUCGAUCGAUACCAGUAGCGAGAGGUACCCUUGGCAGCGAAAUGAGUGAUGUUCAUGAAAGAAGA [KL-XTheoA11]	111
GUAGCACUUGACAGUGAUGUUGUCAAGGGCAAGGAUAUCACCUCAGUGAGAAGGUGUCCUUGAUAACUGCUACGGGAAUAUCCCA [Omei KL FMN A Exc D v7]	152
UGACUGGACUGAAGGAGCGCUUAACUCCUAGUGAUGUUAGGAAAACGAGACAAAGUCUCGAAGCAGGUAGGUCGCAGUCUAGUCU	151
GCCAGUGAUGUUGGCAUUUCGAGCCAUGAAGGAGCGCACGGAAGUGCAGGUAGGUCGCAUGGUACUUAGGAUAUUACCCUAAGUA [Isterare]	212
CAUACGCAUGGAGGAUAUGAGAUUUCUCAUAUUAUUUAAUAUUCUCAGUGAUGUUGAGAUAUAAACUCAGAAGGCCAUGUGUAUG [Ex FMN B 2]	196
ACCACCUGUCUGGAUACCAGUCUUCGAGUGAUGUUGGAAGUUAGCCGGUUCUAUUACCUAGACCCUUGGCAGCCAGGAAUUAUAG [theeternabot_exclusion_KL_Theo_B_17]	1500
CGUGAAUGUCGUCAGUCAUCGGUCCAUGCACGAGGACCGGUACGGCCGCCACUCGAGCGUGGCAGUGAUGUUGCCAGCGCACUAA [KL-XTryp-A13]	128
CCUGCAGCUGUUACCGAGGGAUGCUACGGACGAGGACCGGUACGGCCGCCACUCGCCAGUGAUGUUGGUGAGGGAGGACGUUCCU [Georte]	150
UUAUCAUCAGCGGCCGCCACUGCAAAUUGGAGUGAUGUUCCAAGCGUGGAUAAUGAAAUCACUAGUAGGACCGGGUUGAUGAAUU [AK 1 Ex Trypt B]	270
CGCAGUGAUGUUGCGAGUUUGAUCAGGGAAGGAGCGGCUCAGAAGCCAGGUAGGUCGCCCACGCAGUGAUGUUGUGUAUUCGGGU [Exclusion Arginine A GF 1]	87.9
UGCCGCAAGGCGAGCGCUCCCACUCCGGAAGGAGCGCCCGGAAGGGCAGGUAGGUCGCCGGAGUGAUGUUCCGGUGGAGGGCUCG [#2 Exclusion - Arginine A Attempt #26 (Inspired by Omei)]	358
CCUAUCUCAUACGAUACCAGUCAAUGAUCUUUGAUCAAUGCCAUCACCGAGUGAUGUUCGGACCCUUGGCAGCGUAUGAGAUAGG [whbob_Ex_Theo_B_sa103]	267
AUUUAAUUAACUGAUACCAGACUUUUUGUUUUGAUAAUUACUAGUGAUGUUAGUGUUUCUGUCCCUUGGCAGCAGUAUCUACUUA [JR_ExcTheophyB_Sub017]	122
UUGAGCCGGACUUAAGUCCGGCUCUGCGAGCGAGGACCGGUACGGCCGCCACUCGGUGCAGUGAUGUUGCAUGGCCGCAAGGCCG [#2 Exclusion - Tryptophan A Attempt #11 (HarryS)]	298
GGAGGGAUCUCGGCCGCCACUCAUAAGAAAUGGGCCUCAGAAAUAUAGUGAUGUUAUGUAAAGAAGAGGACCGGGAGAAAGAAGG [ExTryptoB.Da]	324
UGGAGUUGACGAAAAGUCAACUCCUGAGAAGGAGCGCACGAAAGUGCAGGUAGGUCGCUCUACCAGUGAUGUUGGUACUUAAUAA [#OpenEnded 6]	117
